The values below come from patent publication US20040265809A1 (published 2004).

This test has as its target T1, rat RORβ ligand-binding domain (RORβ-LBD), residues 201-452, polyhistidine-tagged (rat, UniProt P45446 212-463).
T1 construct: Expressed in E. coli; The ligand pocket holds stearic acid (first crystal) or all-trans retinoic acid (second crystal); One monomer per asymmetric unit; also called rRORβ-LBD; RORbeta LBD; not shown: N-terminal polyhistidine tag and thrombin cleavage site from the pet15b vector (Novagen); the tagge
T1 sequence: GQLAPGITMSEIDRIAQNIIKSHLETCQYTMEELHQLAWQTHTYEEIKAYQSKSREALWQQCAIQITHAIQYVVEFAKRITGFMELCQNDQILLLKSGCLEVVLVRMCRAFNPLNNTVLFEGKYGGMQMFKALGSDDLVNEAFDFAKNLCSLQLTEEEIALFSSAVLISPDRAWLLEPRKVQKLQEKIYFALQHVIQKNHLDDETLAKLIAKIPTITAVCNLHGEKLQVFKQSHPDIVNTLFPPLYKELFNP
Briefly: co-crystallisation, hanging drop, stearate complex. As to the method:
The RORβ-LBD stearate complex was crystallized at 22° C. by vapor diffusion in the hanging-drop mode. In the crystallisation trials, the protein was used without further purification and co-crystallized with a 3-molar excess of SRC-1⁶⁸⁶⁻⁷⁰⁰([…]) NR-interacting peptide co-activator sequence. Addition of the peptide was crucial to obtain crystals. In the initial trial to obtain crystallization conditions, a sparse matrix crystallization screen was done with a home screen. For each crystallization trial, a 4 μl drop was prepared by mixing 2 μl of purified protein (5.8 mg/ml) with an equal volume of reservoir solution. The reservoir contained 500 μl of the precipitating solution. A crystal measuring […] at 22° C. in PEG 6000 15% and 100 mM Tris HCl at pH=8.0 grew within about 2 weeks. This crystal was used in a first data collection run (as described below).

In the case of RHKILHRLLQEGSPS (also called SRC1 peptide) [SRC-1 686-700 NR-interacting co-activator peptide], the binding result is given as “binds”.
